The record followed here is paper PMC8151509 (International Journal of Molecular Sciences, 2021).

Settings in all cases: both partners purified
For assay [1], the target named is T1, serum-derived C1q (human, UniProt P02745 23-245); P02746 28-253; P02747 29-245, hydroxyprolines in the collagen-like region (shown as O in Figure 8A) | hydroxyprolines in the collagen-like region (shown as O in Figure 8A) | hydroxyprolines in the collagen-like region (shown as O …).
T1 construct: Complement C1q, A chain; Complement C1q, B chain; Complement C1q, C chain; 18 polypeptide chains, six A-B-C heterotrimers, 460 kDa; also called sC1q; source: purified from human serum; copies: 6 + 6 + 6
T1 sequence (P02745 23-245, chain 1 of 3): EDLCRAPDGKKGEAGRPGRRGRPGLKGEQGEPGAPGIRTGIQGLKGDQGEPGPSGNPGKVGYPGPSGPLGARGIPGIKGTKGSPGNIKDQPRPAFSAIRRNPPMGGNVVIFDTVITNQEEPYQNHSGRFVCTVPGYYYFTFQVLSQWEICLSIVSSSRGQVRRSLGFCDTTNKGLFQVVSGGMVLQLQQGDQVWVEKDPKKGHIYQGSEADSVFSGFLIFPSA
T1 sequence (P02746 28-253, chain 2 of 3): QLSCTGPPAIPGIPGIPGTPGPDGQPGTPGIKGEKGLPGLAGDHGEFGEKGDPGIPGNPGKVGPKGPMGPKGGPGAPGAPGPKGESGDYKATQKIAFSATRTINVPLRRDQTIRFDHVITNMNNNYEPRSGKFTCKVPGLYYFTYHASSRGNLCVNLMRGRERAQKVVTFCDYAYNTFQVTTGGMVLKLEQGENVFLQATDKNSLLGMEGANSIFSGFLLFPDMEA
T1 sequence (P02747 29-245, chain 3 of 3): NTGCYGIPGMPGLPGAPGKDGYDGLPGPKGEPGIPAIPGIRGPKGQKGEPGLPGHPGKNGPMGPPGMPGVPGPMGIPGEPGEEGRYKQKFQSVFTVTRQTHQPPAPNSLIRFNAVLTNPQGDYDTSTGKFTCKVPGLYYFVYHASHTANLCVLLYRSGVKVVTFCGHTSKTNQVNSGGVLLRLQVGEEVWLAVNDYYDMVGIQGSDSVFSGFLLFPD
Nature of the assay: SPR; sC1q (1 nM), alone or preincubated with C1r2s2 at increasing molar ratios (1-5; 15 min at 25 °C), injected over immobilized LAIR-1 Ig-like domain (330 RU); 50 mM Tris, 150 mM NaCl, 2 mM CaCl2, 0.05% surfactant P20, pH 7.5; 25 °C; avidity effects. Background: SPR reads the build-up and loss of mass on a sensor chip optically.

Assay [2] deals with T2, recombinant C1q mutant with an alanine substitution of LysA59, LysB61 and LysC58 (UniProt P02745 23-245; P02746 28-253; P02747 29-245, alanine substitution of LysA59 | alanine substitution of LysB61 | alanine …).
T2 construct: Complement C1q, A chain; Complement C1q, B chain; Complement C1q, C chain; also called rC1q ABC; source: recombinant, produced and purified as reported in Bally et al. [20]; copies: + +
T2 sequence (P02745 other isoform, or with tags, fused parts or gaps with the stated changes, chain 1 of 3): as the sequence (P02745 23-245, chain 1 of 3) above, with K59A counted along it
T2 sequence (P02746 other isoform, or with tags, fused parts or gaps with the stated changes, chain 2 of 3): as the sequence (P02746 28-253, chain 2 of 3) above, with K61A counted along it
T2 sequence (P02747 other isoform, or with tags, fused parts or gaps with the stated changes, chain 3 of 3): as the sequence (P02747 29-245, chain 3 of 3) above, with K58A counted along it
Nature of the assay: SPR; LAIR-1 Ig-like domain injected at increasing concentrations (4-128, 4-256 or 3.125-400 µM) over immobilized C1q, rC1q variants, C1qCLR_nc2 variants or C1qstem_nc2 (CM5, amine coupling); 25 °C; 50 mM Tris, 150 mM NaCl, 2 mM CaCl2, 0.05% surfactant P20, pH 7.5; KD from Req versus concentration, steady-state model.

Assay [3] deals with T1, serum-derived C1q. The description is as above.
In assay [4] the target is T3, recombinant wild-type C1q (UniProt P02745 23-245; P02746 28-253; P02747 29-245).
T3 construct: Complement C1q, A chain; Complement C1q, B chain; Complement C1q, C chain; also called rC1q WT; source: recombinant, produced and purified as reported in Bally et al. [20]; copies: + +
T3 sequence (P02745 23-245, chain 1 of 3): as the sequence (P02745 23-245, chain 1 of 3) above
T3 sequence (P02746 28-253, chain 2 of 3): as the sequence (P02746 28-253, chain 2 of 3) above
T3 sequence (P02747 29-245, chain 3 of 3): as the sequence (P02747 29-245, chain 3 of 3) above
The assay is described as above.

Assay [5] concerns the target T1, serum-derived C1q. Nature of the assay: SPR; LAIR-1 Ig-like domain (WT or mutant) injected at 10 µM over C1q or C1q fragment amine-coupled to a CM5 chip (sC1q 14,000 RU, sCLR 6000 RU, sGR 1500 RU); 25 °C; 50 mM Tris, 150 mM NaCl, 2 mM CaCl2, 0.05% surfactant P20, pH 7.5; association 180 s; mutants as percentage of the WT response at equilibrium.

B1: recombinant C1r2s2 tetramer (C1s, C1rS637A) (complex)
chain 1: SIPIPQKLFGEVTSPLFPKPYPNNFETTTVITVPTGYRVKLVFQQFDLEPSEGCFYDYVKISADKKSLGRFCGQLGSPLGNPPGKKEFMSQGNKMLLTFHTDFSNEENGTIMFYKGFLAYYQAVDLDECASRSKSGEEDPQPQCQHLCHNYVGGYFCSCRPGYELQEDTHSCQAECSSELYTEASGYISSLEYPRSYPPDLRCNYSIRVERGLTLHLKFLEPFDIDDHQQVHCPYDQLQIYANGKNIGEFCGKQRPPDLDTSSNAVDLLFFTDESGDSRGWKLRYTTEIIKCPQPKTLDEFTIIQNLQPQYQFRDYFIATCKQGYQLIEGNQVLHSFTAVCQDDGTWHRAMPRCKIKDCGQPRNLPNGDFRYTTTMGVNTYKARIQYYCHEPYYKMQTRAGSRESEQGVYTCTAQGIWKNEQKGEKIPRCLPVCGKPVNPVEQRQRIIGGQKAKMGNFPWQVFTNIHGRGGGALLGDRWILTAAHTLYPKEHEAQSNASLDVFLGHTNVEELMKLGNHPIRRVSVHPDYRQDESYNFEGDIALLELENSVTLGPNLLPICLPDNDTFYDLGLMGYVSGFGVMEEKIAHDLRFVRLPVANPQACENWLRGKNRMDVFSQNMFCAGHPSLKQDACQGDAGGVFAVRDPNTDRWVATGIVSWGIGCSRGYGFYTKVLNYVDWIKKEMEEED
chain 2: EPTMYGEILSPNYPQAYPSEVEKSWDIEVPEGYGIHLYFTHLDIELSENCAYDSVQIISGDTEEGRLCGQRSSNNPHSPIVEEFQVPYNKLQVIFKSDFSNEERFTGFAAYYVATDINECTDFVDVPCSHFCNNFIGGYFCSCPPEYFLHDDMKNCGVNCSGDVFTALIGEIASPNYPKPYPENSRCEYQIRLEKGFQVVVTLRREDFDVEAADSAGNCLDSLVFVAGDRQFGPYCGHGFPGPLNIETKSNALDIIFQTDLTGQKKGWKLRYHGDPMPCPKEDTPNSVWEPAKAKYVFRDVVQITCLDGFEVVEGRVGATSFYSTCQSNGKWSNSKLKCQPVDCGIPESIENGKVEDPESTLFGSVIRYTCEEPYYYMENGGGGEYHCAGNGSWVNEVLGPELPKCVPVCGVPREPFEEKQRIIGGSDADIKNFPWQVFFDNPWAGGALINEYWVLTAAHVVEGNREPTMYVGSTSVQTSRLAKSKMLTPEHVFIHPGWKLLEVPEGRTNFDNDIALVRLKDPVKMGPTVSPICLPGTSSDYNLMDGDLGLISGWGRTEKRDRAVRLKAARLPVAPLRKCKEVKVEKPTADAEAYVFTPNMICAGGEKGMDSCKGDSGGAFAVQDPNDKTKFYAAGLVSWGPQCGTYGLYTRVKNYVDWIMKTMQENSTPRED
notes: Complement C1r protease; Complement C1s protease; also called C1r2s2 proteases tetramer; source: recombinant, purified according to published procedures [42]; copies: 2 + 2
Regarding B1, in the assay with serum-derived C1q [1], the binding result is listed as “binds”.

B2: LAIR-1 Ig-like domain, wild type (domain or fragment, human, UniProt Q6GTX8 22-122, looked up)
chain: QEEDLPRPSISAEPGTVIPLGSHVTFVCRGPVGVQTFRLERDSRSTYNDTEDVSQASPSESEARFRIDSVREGNAGLYRCIYYKPPKWSEQSDYLELLVKE
notes: Leukocyte associated immunoglobulin-like receptor 1 (LAIR-1; CD305), C2-type Ig-like domain, residues 22 to 122; pET28a construct; intact disulfide bond by ESI-MS; also called LAIR-1 WT; soluble LAIR-1 Ig-like domain
B2: the Kd (in general, the concentration at which binding is half-saturated) in assay [2] stood at 132 µM; with serum-derived C1q [3] it was 112 µM; in assay [4], 99.5 µM.

B3: LAIR-1 Ig-like domain E72K (domain or fragment, human, UniProt Q6GTX8 22-122, looked up)
chain: QEEDLPRPSISAEPGTVIPLGSHVTFVCRGPVGVQTFRLERDSRSTYNDTKDVSQASPSESEARFRIDSVREGNAGLYRCIYYKPPKWSEQSDYLELLVKE
notes: LAIR-1 (CD305), C2-type Ig-like domain, residues 22 to 122
For the molecule B3, the binding result in the assay with serum-derived C1q [5] was “binds”.

B4: LAIR-1 Ig-like domain I102L (domain or fragment, human, UniProt Q6GTX8 22-122, looked up)
chain: QEEDLPRPSISAEPGTVIPLGSHVTFVCRGPVGVQTFRLERDSRSTYNDTEDVSQASPSESEARFRIDSVREGNAGLYRCLYYKPPKWSEQSDYLELLVKE
notes: as for B3
With B4, the binding result in the assay with serum-derived C1q [5] is “binds”.

B5: LAIR-1 Ig-like domain E111K (domain or fragment, human, UniProt Q6GTX8 22-122, looked up)
chain: QEEDLPRPSISAEPGTVIPLGSHVTFVCRGPVGVQTFRLERDSRSTYNDTEDVSQASPSESEARFRIDSVREGNAGLYRCIYYKPPKWSKQSDYLELLVKE
notes: as for B3
For the molecule B5, the binding result in the assay with serum-derived C1q [5] is “binds”.

B6: LAIR-1 Ig-like domain P107R (domain or fragment, human, UniProt Q6GTX8 22-122, looked up)
chain: QEEDLPRPSISAEPGTVIPLGSHVTFVCRGPVGVQTFRLERDSRSTYNDTEDVSQASPSESEARFRIDSVREGNAGLYRCIYYKPRKWSEQSDYLELLVKE
notes: as for B3
Turning to B6, in the assay with serum-derived C1q [5], the binding result was “binds”.
